{
  "source": "patent US20240118272A1",
  "key": {"[1]": {"target": "CD81(ECD)-ALP conjugate (human; bovine)", "sequence (chain, as listed by the source, chain 1 of 2)": "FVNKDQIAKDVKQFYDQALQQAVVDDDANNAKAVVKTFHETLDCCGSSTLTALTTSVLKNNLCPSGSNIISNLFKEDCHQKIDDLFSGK", "sequence (P19111 20-506, chain 2 of 2)": "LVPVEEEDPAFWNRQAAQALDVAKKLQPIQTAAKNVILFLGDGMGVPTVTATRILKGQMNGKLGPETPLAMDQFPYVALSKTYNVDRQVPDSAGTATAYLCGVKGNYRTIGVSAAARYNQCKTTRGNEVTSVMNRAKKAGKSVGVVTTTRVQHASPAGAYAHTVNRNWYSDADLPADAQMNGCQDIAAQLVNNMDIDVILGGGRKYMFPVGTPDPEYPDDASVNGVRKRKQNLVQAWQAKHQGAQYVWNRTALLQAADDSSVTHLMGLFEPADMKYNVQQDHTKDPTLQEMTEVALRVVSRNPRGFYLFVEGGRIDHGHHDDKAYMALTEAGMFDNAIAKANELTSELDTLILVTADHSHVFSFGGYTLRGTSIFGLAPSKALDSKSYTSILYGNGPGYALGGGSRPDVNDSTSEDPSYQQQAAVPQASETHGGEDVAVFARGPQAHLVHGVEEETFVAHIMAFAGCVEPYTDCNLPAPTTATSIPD", "experiment": "HI-1000 capture immunoassay; calibrator C2, 13.80 mU/L; run 2"}, "[2]": {"target": "CD81(ECD)-ALP conjugate (human; bovine)", "experiment": "HI-1000 capture immunoassay; calibrator C2, 13.80 mU/L; mean of 3"}, "[3]": {"target": "CD81(ECD)-ALP conjugate (human; bovine)", "experiment": "HI-1000 capture immunoassay; calibrator C3, 55.20 mU/L; run 3"}, "[4]": {"target": "CD81(ECD)-ALP conjugate (human; bovine)", "experiment": "HI-1000 capture immunoassay; calibrator C4, 500 ng/mL; run 1"}, "[5]": {"target": "CD81(ECD)-ALP conjugate (human; bovine)", "experiment": "HI-1000 capture immunoassay; calibrator C5, 883.16 mU/L; run 1"}, "[6]": {"target": "CD81(ECD)-ALP conjugate (human; bovine)", "experiment": "HI-1000 capture immunoassay; calibrator C2, 20 ng/mL; run 3"}, "[7]": {"target": "CD81(ECD)-ALP conjugate (human; bovine)", "experiment": "HI-1000 capture immunoassay; calibrator C5, 883.16 mU/L; run 3"}, "[8]": {"target": "CD81(ECD)-ALP conjugate (human; bovine)", "experiment": "HI-1000 capture immunoassay; calibrator C4, 220.80 mU/L; run 3"}, "[9]": {"target": "CD81(ECD)-ALP conjugate (human; bovine)", "experiment": "HI-1000 capture immunoassay; calibrator C2, 20 ng/mL; run 2"}, "[10]": {"target": "CD81(ECD)-ALP conjugate (human; bovine)", "experiment": "HI-1000 capture immunoassay; calibrator C3, 100 ng/mL; run 3"}, "[11]": {"target": "CD81(ECD)-ALP conjugate (human; bovine)", "experiment": "HI-1000 capture immunoassay; calibrator C5, 2500 ng/mL; mean of 3"}, "[12]": {"target": "CD81(ECD)-ALP conjugate (human; bovine)", "experiment": "HI-1000 capture immunoassay; calibrator C1, 3.45 mU/L; run 1"}, "[13]": {"target": "CD81(ECD)-ALP conjugate (human; bovine)", "experiment": "HI-1000 capture immunoassay; calibrator C1, 4 ng/mL; mean of 3"}, "[14]": {"target": "CD81(ECD)-ALP conjugate (human; bovine)", "experiment": "HI-1000 capture immunoassay; calibrator C3, 100 ng/mL; mean of 3"}, "[15]": {"target": "CD81(ECD)-ALP conjugate (human; bovine)", "experiment": "HI-1000 capture immunoassay; calibrator C3, 100 ng/mL; run 1"}, "[16]": {"target": "CD81(ECD)-ALP conjugate (human; bovine)", "experiment": "HI-1000 capture immunoassay; calibrator C3, 100 ng/mL; run 2"}, "[17]": {"target": "CD81(ECD)-ALP conjugate (human; bovine)", "experiment": "HI-1000 capture immunoassay; calibrator C5, 883.16 mU/L; mean of 3"}, "[18]": {"target": "CD81(ECD)-ALP conjugate (human; bovine)", "experiment": "HI-1000 capture immunoassay; calibrator C3, 55.20 mU/L; run 1"}, "[19]": {"target": "CD81(ECD)-ALP conjugate (human; bovine)", "experiment": "HI-1000 capture immunoassay; calibrator C3, 55.20 mU/L; mean of 3"}, "[20]": {"target": "CD81(ECD)-ALP conjugate (human; bovine)", "experiment": "HI-1000 capture immunoassay; calibrator C4, 220.80 mU/L; run 2"}, "[21]": {"target": "CD81(ECD)-ALP conjugate (human; bovine)", "experiment": "HI-1000 capture immunoassay; calibrator C5, 2500 ng/mL; run 3"}, "[22]": {"target": "CD81(ECD)-ALP conjugate (human; bovine)", "experiment": "HI-1000 capture immunoassay; calibrator C1, 3.45 mU/L; run 3"}, "[23]": {"target": "CD81(ECD)-ALP conjugate (human; bovine)", "experiment": "HI-1000 capture immunoassay; calibrator C2, 13.80 mU/L; run 3"}, "[24]": {"target": "CD81(ECD)-ALP conjugate (human; bovine)", "experiment": "HI-1000 capture immunoassay; calibrator C5, 2500 ng/mL; run 1"}, "[25]": {"target": "CD81(ECD)-ALP conjugate (human; bovine)", "experiment": "HI-1000 capture immunoassay; calibrator C2, 20 ng/mL; mean of 3"}, "[26]": {"target": "CD81(ECD)-ALP conjugate (human; bovine)", "experiment": "HI-1000 capture immunoassay; calibrator C2, 13.80 mU/L; run 1"}, "[27]": {"target": "CD81(ECD)-ALP conjugate (human; bovine)", "experiment": "HI-1000 capture immunoassay; calibrator C4, 500 ng/mL; run 2"}, "[28]": {"target": "CD81(ECD)-ALP conjugate (human; bovine)", "experiment": "HI-1000 capture immunoassay; calibrator C2, 20 ng/mL; run 1"}, "[29]": {"target": "CD81(ECD)-ALP conjugate (human; bovine)", "experiment": "HI-1000 capture immunoassay; calibrator C5, 883.16 mU/L; run 2"}, "[30]": {"target": "CD81(ECD)-ALP conjugate (human; bovine)", "experiment": "HI-1000 capture immunoassay; calibrator C5, 2500 ng/mL; run 2"}, "[31]": {"target": "CD81(ECD)-ALP conjugate (human; bovine)", "experiment": "HI-1000 capture immunoassay; calibrator C1, 4 ng/mL; run 3"}, "[32]": {"target": "CD81(ECD)-ALP conjugate (human; bovine)", "experiment": "HI-1000 capture immunoassay; calibrator C3, 55.20 mU/L; run 2"}, "[33]": {"target": "CD81(ECD)-ALP conjugate (human; bovine)", "experiment": "HI-1000 capture immunoassay; calibrator C1, 3.45 mU/L; mean of 3"}, "[34]": {"target": "CD81(ECD)-ALP conjugate (human; bovine)", "experiment": "HI-1000 capture immunoassay; calibrator C1, 4 ng/mL; run 1"}, "[35]": {"target": "CD81(ECD)-ALP conjugate (human; bovine)", "experiment": "HI-1000 capture immunoassay; calibrator C4, 220.80 mU/L; run 1"}, "[36]": {"target": "CD81(ECD)-ALP conjugate (human; bovine)", "experiment": "HI-1000 capture immunoassay; calibrator C4, 220.80 mU/L; mean of 3"}, "[37]": {"target": "CD81(ECD)-ALP conjugate (human; bovine)", "experiment": "HI-1000 capture immunoassay; calibrator C4, 500 ng/mL; mean of 3"}, "[38]": {"target": "CD81(ECD)-ALP conjugate (human; bovine)", "experiment": "HI-1000 capture immunoassay; calibrator C1, 3.45 mU/L; run 2"}, "[39]": {"target": "CD81(ECD)-ALP conjugate (human; bovine)", "experiment": "HI-1000 capture immunoassay; calibrator C1, 4 ng/mL; run 2"}, "[40]": {"target": "CD81(ECD)-ALP conjugate (human; bovine)", "experiment": "HI-1000 capture immunoassay; calibrator C4, 500 ng/mL; run 3"}},
  "data": [
    {"substance": "anti-CD81 antibody (Clone: 5A6)", "values": [
      {"measurement": "Count value", "setting": "[1]", "result": 4600, "unit": "count"},
      {"measurement": "Count value (av)", "setting": "[2]", "result": 4620, "unit": "count"},
      {"measurement": "Count value", "setting": "[3]", "result": 20900, "unit": "count"},
      {"measurement": "Count value", "setting": "[4]", "result": 101000, "unit": "count"},
      {"measurement": "Count value", "setting": "[5]", "result": 503000, "unit": "count"},
      {"measurement": "Count value", "setting": "[6]", "result": 4640, "unit": "count"},
      {"measurement": "Count value", "setting": "[7]", "result": 494000, "unit": "count"},
      {"measurement": "Count value", "setting": "[8]", "result": 102000, "unit": "count"},
      {"measurement": "Count value", "setting": "[9]", "result": 4380, "unit": "count"},
      {"measurement": "Count value", "setting": "[10]", "result": 19600, "unit": "count"},
      {"measurement": "Count value (av)", "setting": "[11]", "result": 494000, "unit": "count"},
      {"measurement": "Count value", "setting": "[12]", "result": 1380, "unit": "count"},
      {"measurement": "Count value (av)", "setting": "[13]", "result": 1280, "unit": "count"},
      {"measurement": "Count value (av)", "setting": "[14]", "result": 19900, "unit": "count"},
      {"measurement": "Count value", "setting": "[15]", "result": 20000, "unit": "count"},
      {"measurement": "Count value", "setting": "[16]", "result": 20000, "unit": "count"},
      {"measurement": "Count value (av)", "setting": "[17]", "result": 498000, "unit": "count"},
      {"measurement": "Count value", "setting": "[18]", "result": 20900, "unit": "count"},
      {"measurement": "Count value (av)", "setting": "[19]", "result": 20700, "unit": "count"},
      {"measurement": "Count value", "setting": "[20]", "result": 99500, "unit": "count"},
      {"measurement": "Count value", "setting": "[21]", "result": 486000, "unit": "count"},
      {"measurement": "Count value", "setting": "[22]", "result": 1340, "unit": "count"},
      {"measurement": "Count value", "setting": "[23]", "result": 4610, "unit": "count"},
      {"measurement": "Count value", "setting": "[24]", "result": 498000, "unit": "count"},
      {"measurement": "Count value (av)", "setting": "[25]", "result": 4500, "unit": "count"},
      {"measurement": "Count value", "setting": "[26]", "result": 4650, "unit": "count"},
      {"measurement": "Count value", "setting": "[27]", "result": 100000, "unit": "count"},
      {"measurement": "Count value", "setting": "[28]", "result": 4480, "unit": "count"},
      {"measurement": "Count value", "setting": "[29]", "result": 496000, "unit": "count"},
      {"measurement": "Count value", "setting": "[30]", "result": 496000, "unit": "count"},
      {"measurement": "Count value", "setting": "[31]", "result": 1280, "unit": "count"},
      {"measurement": "Count value", "setting": "[32]", "result": 20400, "unit": "count"},
      {"measurement": "Count value (av)", "setting": "[33]", "result": 1380, "unit": "count"},
      {"measurement": "Count value", "setting": "[34]", "result": 1270, "unit": "count"},
      {"measurement": "Count value", "setting": "[35]", "result": 105000, "unit": "count"},
      {"measurement": "Count value (av)", "setting": "[36]", "result": 102000, "unit": "count"},
      {"measurement": "Count value (av)", "setting": "[37]", "result": 100000, "unit": "count"},
      {"measurement": "Count value", "setting": "[38]", "result": 1430, "unit": "count"},
      {"measurement": "Count value", "setting": "[39]", "result": 1300, "unit": "count"},
      {"measurement": "Count value", "setting": "[40]", "result": 99600, "unit": "count"}
    ]}
  ]
}
